Assay results as given in CN117164676A (UNIV XIAMEN; BEIJING WANTAI BIOLOGICAL PHARMACY ENTPR CO LTD, dated 2023).

T1: 不含表位肽的载体蛋白(HBcAg) C149
T1 construct: also called 载体蛋白C149; 突变型HBc
T1 chain: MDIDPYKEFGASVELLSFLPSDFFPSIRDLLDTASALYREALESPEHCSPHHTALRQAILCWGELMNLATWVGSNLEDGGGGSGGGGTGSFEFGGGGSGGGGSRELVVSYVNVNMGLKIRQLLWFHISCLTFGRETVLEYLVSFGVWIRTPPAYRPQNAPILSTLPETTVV

T2: VZV-ORF9-肽12 (Varicella-Zoster Virus, pOka毒株)
T2 construct: Synthetic 20-mer of ORF9; also called 121-140aa
T2 peptide: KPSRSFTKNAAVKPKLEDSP

T3: 水痘-带状疱疹病毒(VZV) pOka毒株ORF9蛋白 (Varicella-Zoster Virus, pOka毒株, UniProt P09272 1-302)
T3 sequence: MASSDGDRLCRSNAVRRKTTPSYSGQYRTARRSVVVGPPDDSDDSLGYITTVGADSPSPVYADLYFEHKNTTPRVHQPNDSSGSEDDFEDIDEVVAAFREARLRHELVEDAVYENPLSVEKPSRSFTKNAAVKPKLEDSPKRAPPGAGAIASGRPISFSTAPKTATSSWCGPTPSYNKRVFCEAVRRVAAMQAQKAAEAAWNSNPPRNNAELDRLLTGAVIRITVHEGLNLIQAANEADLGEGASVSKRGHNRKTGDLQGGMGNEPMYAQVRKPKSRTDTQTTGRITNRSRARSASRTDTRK

T4: 融合蛋白VZV-ORF9-F3
T4 chain: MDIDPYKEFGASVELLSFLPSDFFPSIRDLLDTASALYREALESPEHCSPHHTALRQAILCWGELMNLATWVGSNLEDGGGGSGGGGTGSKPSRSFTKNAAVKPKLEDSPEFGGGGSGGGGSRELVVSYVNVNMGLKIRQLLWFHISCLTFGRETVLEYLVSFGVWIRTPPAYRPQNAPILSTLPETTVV

T5: VZV-ORF9-肽9 (Varicella-Zoster Virus, pOka毒株)
T5 construct: Synthetic 20-mer of ORF9; also called 91-110aa
T5 peptide: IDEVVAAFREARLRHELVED

T6: 融合蛋白VZV-ORF9-F1
T6 construct: Expressed in E. coli, forms virus-like particles; Run on SDS-PAGE for the Western blot
T6 chain: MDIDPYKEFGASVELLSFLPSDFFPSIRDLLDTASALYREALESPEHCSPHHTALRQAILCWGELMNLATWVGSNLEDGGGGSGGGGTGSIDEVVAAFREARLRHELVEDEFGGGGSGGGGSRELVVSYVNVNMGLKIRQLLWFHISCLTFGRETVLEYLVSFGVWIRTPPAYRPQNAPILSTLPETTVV

T7: VZV-ORF9-肽11 (Varicella-Zoster Virus, pOka毒株)
T7 construct: Synthetic 20-mer of ORF9; also called 111-130aa
T7 peptide: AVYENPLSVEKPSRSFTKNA

T8: 融合蛋白VZV-ORF9-F2-7
T8 chain: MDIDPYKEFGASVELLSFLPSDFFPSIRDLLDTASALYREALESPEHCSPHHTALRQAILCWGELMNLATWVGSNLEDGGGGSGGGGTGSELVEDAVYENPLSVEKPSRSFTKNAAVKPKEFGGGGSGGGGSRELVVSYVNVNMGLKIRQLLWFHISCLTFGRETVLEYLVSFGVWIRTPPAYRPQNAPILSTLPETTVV

T9: 融合蛋白VZV-ORF9-F2-2
T9 chain: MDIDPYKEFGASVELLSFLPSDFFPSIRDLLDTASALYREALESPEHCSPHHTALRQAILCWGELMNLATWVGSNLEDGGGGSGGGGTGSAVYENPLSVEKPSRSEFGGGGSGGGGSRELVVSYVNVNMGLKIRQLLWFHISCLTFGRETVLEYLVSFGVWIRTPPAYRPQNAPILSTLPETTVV

T10: 融合蛋白VZV-ORF9-F2-5
T10 chain: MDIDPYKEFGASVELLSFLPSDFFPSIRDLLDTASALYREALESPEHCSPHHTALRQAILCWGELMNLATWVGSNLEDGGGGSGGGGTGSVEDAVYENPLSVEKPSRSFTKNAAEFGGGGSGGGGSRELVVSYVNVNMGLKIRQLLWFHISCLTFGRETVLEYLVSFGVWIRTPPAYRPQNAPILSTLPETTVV

T11: 融合蛋白VZV-ORF9-F2-8
T11 chain: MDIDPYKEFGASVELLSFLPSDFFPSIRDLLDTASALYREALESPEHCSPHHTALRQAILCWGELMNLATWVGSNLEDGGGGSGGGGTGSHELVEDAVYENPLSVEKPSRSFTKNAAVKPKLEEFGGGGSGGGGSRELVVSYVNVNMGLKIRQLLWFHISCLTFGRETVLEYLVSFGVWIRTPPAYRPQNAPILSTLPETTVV

T12: 融合蛋白VZV-ORF9-F2-1
T12 chain: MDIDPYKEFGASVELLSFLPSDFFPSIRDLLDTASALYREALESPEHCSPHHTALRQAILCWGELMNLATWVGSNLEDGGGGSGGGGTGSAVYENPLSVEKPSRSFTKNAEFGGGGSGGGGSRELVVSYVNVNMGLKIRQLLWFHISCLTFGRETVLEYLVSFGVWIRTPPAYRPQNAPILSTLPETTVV

T13: 融合蛋白VZV-ORF9-F2-3
T13 chain: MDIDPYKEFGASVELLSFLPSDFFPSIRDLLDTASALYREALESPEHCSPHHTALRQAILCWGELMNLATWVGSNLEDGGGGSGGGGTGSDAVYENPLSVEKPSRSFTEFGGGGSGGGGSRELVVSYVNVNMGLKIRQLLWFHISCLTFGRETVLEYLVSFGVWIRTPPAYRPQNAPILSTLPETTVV

T14: 融合蛋白VZV-ORF9-F2-4
T14 chain: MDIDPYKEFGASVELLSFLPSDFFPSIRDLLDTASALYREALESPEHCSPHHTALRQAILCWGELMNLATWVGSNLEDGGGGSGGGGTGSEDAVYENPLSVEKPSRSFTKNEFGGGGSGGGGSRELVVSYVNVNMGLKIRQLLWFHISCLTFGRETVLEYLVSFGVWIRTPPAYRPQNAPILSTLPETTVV

T15: 融合蛋白VZV-ORF9-F2-6
T15 chain: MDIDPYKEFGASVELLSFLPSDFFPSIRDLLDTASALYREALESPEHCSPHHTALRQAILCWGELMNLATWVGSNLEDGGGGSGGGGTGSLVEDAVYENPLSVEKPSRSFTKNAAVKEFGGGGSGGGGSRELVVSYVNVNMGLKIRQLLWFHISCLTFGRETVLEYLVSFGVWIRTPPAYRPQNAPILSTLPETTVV


Experiments:
不含表位肽的载体蛋白(HBcAg) C149 = target: T1, 不含表位肽的载体蛋白(HBcAg) C149; assay: Western blot
VZV-ORF9-肽12 = target: T2, VZV-ORF9-肽12; assay: indirect ELISA, peptide coated at 1μg/孔
[1] = target: T3, 水痘-带状疱疹病毒(VZV) pOka毒株ORF9蛋白; assay: cell-based or functional assay
融合蛋白VZV-ORF9-F3 = target: T4, 融合蛋白VZV-ORF9-F3; assay: Western blot, antibody at 2μg/mL
VZV-ORF9-肽9 = target: T5, VZV-ORF9-肽9; assay: indirect ELISA, peptide coated at 1μg/孔
融合蛋白VZV-ORF9-F1 = target: T6, 融合蛋白VZV-ORF9-F1; assay: Western blot, antibody at 2μg/mL
VZV-ORF9-肽11 = target: T7, VZV-ORF9-肽11; assay: indirect ELISA, peptide coated at 1μg/孔
融合蛋白VZV-ORF9-F2-7 = target: T8, 融合蛋白VZV-ORF9-F2-7; assay: Western blot, antibody at 2μg/mL
融合蛋白VZV-ORF9-F2-2 = target: T9, 融合蛋白VZV-ORF9-F2-2; assay: Western blot, antibody at 2μg/mL
融合蛋白VZV-ORF9-F2-5 = target: T10, 融合蛋白VZV-ORF9-F2-5; assay: Western blot, antibody at 2μg/mL
融合蛋白VZV-ORF9-F2-8 = target: T11, 融合蛋白VZV-ORF9-F2-8; assay: Western blot, antibody at 2μg/mL
融合蛋白VZV-ORF9-F2-1 = target: T12, 融合蛋白VZV-ORF9-F2-1; assay: Western blot, antibody at 2μg/mL
融合蛋白VZV-ORF9-F2-3 = target: T13, 融合蛋白VZV-ORF9-F2-3; assay: Western blot, antibody at 2μg/mL
融合蛋白VZV-ORF9-F2-4 = target: T14, 融合蛋白VZV-ORF9-F2-4; assay: Western blot, antibody at 2μg/mL
融合蛋白VZV-ORF9-F2-6 = target: T15, 融合蛋白VZV-ORF9-F2-6; assay: Western blot, antibody at 2μg/mL

Binder | binding result (不含表位肽的载体蛋白(HBcAg) C149) | binding result (VZV-ORF9-肽12) | 中和效价 (ELISPOT中和实验, VZV pOka, ARPE-19细胞) [1] | binding result (融合蛋白VZV-ORF9-F3) | binding result (VZV-ORF9-肽9) | binding result (融合蛋白VZV-ORF9-F1) | binding result (VZV-ORF9-肽11) | binding result (融合蛋白VZV-ORF9-F2-7) | binding result (融合蛋白VZV-ORF9-F2-2) | binding result (融合蛋白VZV-ORF9-F2-5) | binding result (融合蛋白VZV-ORF9-F2-8) | binding result (融合蛋白VZV-ORF9-F2-1) | binding result (融合蛋白VZV-ORF9-F2-3) | binding result (融合蛋白VZV-ORF9-F2-4) | binding result (融合蛋白VZV-ORF9-F2-6)
抗VZV ORF9中和性单克隆抗体13A7 (antibody, IgG1, V domains shown, also called 单抗13A7) VH: QVQLQQSGAVLARPGASVKLSCKASGYTFTTYWVQWIKQRPGQGLEWIGTIYPGDGDARYAQKFKGKATLTATESSSTAYMQLSSLASEDSAVYYCSRREVYDDYAWFAYWGQGTLVTVSA VL: QIVLSQSPAILSASPGEKVTMTCRASSSVHYMHWYQQKSGFSPKPWIYATSNLASGVPARFSGSESGTSYSLTISRVEAEDAATYFCQQWSTSPPTFGSGTKLEIK | no binding (tested: 2μg/mL) | binds | 16 dilution 1:x of the 1 mg/mL stock | binds | – | – | – | – | – | – | – | – | – | – | –
抗VZV ORF9中和性单克隆抗体4E9 (antibody, IgG1, V domains shown, also called 单抗4E9) VH: QVQLQQSGAELMKPGASVKISCKATGYTFSRYWIEWVKLRPGHGLDWIGEILPGSKTNYNEKFKGKATFTADTSSNTAYMQLSSLTSEDSAVYYCAREGFVYWGQGTLVTVSA VL: DIKMTQSPSSMYASLGERVTITCKASQDINSYLSWLQQKPGKSPKTLIYRANRLVDGVPSRFSGSGSGQDYSLTISSLEYEDMGIYYCLQFDEFPYTFGGGTKLEI | no binding (tested: 2μg/mL) | – | 16 dilution 1:x of the 1 mg/mL stock | – | binds | binds | – | – | – | – | – | – | – | – | –
抗VZV ORF9中和性单克隆抗体4E8 (antibody, IgG1, V domains shown, also called 单抗4E8) VH: QVQLQQSGPELVKPGASVKMSCKTSGYTFTDDVISWVKQRTGQGLEWIGEINPGSGSIYYNEKFKGKATLTADKSSTTAYMQLSSLTSEDSAVYFCARSQYWGQGTTLTVSS VL: DVVMTQTPLSLPVSLGDQASISCRSSQSLVHSNGNTYLHWYLQKPGQSPKLLIYKVSNRFSGVPDRFSGSGSGTDFTLKISRVEAEDLGVYFCSQSTHVPLTFGAGTKLELK | no binding (tested: 2μg/mL) | – | 32 dilution 1:x of the 1 mg/mL stock | – | – | – | binds | binds | binds | binds | binds | binds | binds | binds | binds
